Data as given in patent WO2016171242A1 (dated 2016).

Tests used:
Assay in all cases: flow cytometry on transfected 293F cells
[1] = target: T1, human EPHB4 without signal sequence, FLAG-tagged, expressed from pFLAG-EPHB4 (human, UniProt P54760 16-987)
T1 construct: not shown: FLAG tag supplied by the vector pFLAG-GW
T1 sequence: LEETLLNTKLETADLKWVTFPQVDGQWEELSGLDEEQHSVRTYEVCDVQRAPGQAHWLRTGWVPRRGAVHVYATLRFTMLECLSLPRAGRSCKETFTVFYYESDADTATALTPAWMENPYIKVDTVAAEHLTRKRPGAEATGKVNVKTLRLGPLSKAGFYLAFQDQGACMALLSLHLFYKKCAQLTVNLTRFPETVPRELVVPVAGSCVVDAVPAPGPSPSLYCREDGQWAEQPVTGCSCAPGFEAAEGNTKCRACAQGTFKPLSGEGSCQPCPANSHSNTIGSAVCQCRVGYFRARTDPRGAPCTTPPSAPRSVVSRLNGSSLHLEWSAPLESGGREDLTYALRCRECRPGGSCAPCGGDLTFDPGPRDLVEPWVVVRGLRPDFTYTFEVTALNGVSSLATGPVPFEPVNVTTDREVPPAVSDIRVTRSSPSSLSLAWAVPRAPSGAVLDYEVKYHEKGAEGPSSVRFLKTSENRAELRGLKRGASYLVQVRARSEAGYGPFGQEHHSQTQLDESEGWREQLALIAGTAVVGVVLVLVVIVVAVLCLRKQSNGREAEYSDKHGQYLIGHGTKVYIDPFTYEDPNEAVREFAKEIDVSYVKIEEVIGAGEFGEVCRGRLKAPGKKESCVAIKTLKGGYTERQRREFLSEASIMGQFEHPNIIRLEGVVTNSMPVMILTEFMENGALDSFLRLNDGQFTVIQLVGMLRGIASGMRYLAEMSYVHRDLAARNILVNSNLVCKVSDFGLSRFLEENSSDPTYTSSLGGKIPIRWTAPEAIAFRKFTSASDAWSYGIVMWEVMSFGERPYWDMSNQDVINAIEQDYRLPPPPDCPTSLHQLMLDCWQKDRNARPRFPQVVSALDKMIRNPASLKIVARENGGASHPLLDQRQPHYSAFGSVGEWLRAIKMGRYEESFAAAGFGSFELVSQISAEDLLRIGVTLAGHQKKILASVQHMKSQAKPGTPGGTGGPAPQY

[2] = target: T2, human PTPRS isoform 4 without signal sequence, FLAG-tagged, expressed from pFLAG-PTPRS-4 (human, UniProt Q13332 30-1948)
T2 construct: not shown: FLAG tag supplied by the vector pFLAG-GW
T2 sequence: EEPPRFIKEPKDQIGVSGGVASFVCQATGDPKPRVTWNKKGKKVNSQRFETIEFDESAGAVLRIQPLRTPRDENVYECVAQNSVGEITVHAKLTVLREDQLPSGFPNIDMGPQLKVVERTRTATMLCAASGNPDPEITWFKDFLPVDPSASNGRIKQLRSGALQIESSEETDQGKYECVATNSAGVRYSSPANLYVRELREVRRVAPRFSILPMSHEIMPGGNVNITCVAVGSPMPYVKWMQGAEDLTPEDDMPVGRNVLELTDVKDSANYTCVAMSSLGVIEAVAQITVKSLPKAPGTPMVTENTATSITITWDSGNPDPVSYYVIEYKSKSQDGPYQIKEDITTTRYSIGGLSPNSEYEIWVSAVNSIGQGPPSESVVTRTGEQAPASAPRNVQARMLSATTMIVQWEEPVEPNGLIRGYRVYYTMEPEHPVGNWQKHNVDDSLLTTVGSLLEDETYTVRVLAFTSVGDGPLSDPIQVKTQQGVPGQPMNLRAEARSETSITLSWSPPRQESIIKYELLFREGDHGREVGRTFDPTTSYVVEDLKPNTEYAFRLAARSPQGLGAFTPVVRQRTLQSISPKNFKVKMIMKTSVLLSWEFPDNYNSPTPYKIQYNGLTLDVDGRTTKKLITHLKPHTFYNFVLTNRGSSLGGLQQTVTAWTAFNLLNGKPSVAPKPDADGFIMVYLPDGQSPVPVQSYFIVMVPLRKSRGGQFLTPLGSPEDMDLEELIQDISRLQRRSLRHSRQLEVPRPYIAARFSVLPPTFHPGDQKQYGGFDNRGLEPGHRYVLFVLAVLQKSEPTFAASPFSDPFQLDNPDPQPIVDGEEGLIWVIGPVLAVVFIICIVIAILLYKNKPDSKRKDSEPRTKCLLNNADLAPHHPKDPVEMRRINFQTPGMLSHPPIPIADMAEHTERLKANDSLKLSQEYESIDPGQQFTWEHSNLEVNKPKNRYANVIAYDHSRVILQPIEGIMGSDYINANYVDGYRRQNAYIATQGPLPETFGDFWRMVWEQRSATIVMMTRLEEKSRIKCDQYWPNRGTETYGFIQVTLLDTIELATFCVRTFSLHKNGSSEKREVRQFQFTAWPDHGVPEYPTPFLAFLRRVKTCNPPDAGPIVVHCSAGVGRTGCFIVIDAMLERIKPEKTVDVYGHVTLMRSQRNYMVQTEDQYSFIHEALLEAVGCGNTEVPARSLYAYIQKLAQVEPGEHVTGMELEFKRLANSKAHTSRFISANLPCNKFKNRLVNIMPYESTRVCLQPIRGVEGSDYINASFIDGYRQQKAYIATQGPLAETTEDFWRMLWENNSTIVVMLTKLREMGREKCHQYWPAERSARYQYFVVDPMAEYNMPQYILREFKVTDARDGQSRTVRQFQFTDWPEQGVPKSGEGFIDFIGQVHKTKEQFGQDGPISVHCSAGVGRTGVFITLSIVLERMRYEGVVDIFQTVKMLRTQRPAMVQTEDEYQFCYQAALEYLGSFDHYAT

[3] = target: T3, human EPHA7 without signal sequence, FLAG-tagged, expressed from pFLAG-EPHA7 (human, UniProt Q15375 28-998)
T3 construct: not shown: FLAG tag supplied by the vector pFLAG-GW

Measured: binding result

T3 sequence (Q15375 28-998): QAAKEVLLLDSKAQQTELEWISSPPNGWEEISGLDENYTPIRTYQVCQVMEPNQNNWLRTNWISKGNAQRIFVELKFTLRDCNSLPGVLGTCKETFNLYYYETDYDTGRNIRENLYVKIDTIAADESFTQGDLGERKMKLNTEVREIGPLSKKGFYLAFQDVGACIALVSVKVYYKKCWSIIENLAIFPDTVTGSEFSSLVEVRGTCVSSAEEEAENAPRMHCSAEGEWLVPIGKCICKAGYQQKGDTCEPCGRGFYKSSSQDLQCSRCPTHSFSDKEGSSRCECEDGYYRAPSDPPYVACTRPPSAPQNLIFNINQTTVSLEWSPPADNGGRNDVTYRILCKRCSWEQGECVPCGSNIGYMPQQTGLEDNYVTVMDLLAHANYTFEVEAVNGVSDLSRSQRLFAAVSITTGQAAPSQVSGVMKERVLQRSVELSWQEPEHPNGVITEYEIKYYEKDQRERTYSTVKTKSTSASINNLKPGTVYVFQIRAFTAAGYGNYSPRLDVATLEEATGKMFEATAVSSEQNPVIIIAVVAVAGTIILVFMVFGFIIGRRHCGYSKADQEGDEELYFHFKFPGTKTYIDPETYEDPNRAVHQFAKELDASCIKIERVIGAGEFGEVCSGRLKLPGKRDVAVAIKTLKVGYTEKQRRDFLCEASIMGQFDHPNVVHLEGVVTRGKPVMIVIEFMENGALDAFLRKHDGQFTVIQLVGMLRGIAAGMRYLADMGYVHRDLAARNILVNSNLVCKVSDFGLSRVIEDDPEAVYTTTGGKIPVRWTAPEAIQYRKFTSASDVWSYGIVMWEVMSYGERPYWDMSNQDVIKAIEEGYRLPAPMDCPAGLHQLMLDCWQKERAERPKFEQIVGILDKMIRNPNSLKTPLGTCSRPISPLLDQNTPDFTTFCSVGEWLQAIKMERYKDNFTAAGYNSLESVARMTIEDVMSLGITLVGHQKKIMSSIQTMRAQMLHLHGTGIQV

B1: mouse anti-human EPHA2 antibody A201 (antibody, V domains shown)
VH: EVQLQQSGAELVKPGASVKLSCTVSGFTFKDTYVHWVKQRPEQGLEWIGRIDPANANTKYDPKFQGKASITADTSSNTAYLQLSSLPSEDTAVYYCAAYGKSAWFAYWGQGTLVTVSA
VL: DIQMTQTTSSLSASLGDRVTISCRASQDIGNYLNWYQQKPDGTVKVLIYYTSRLHSGVPSRFSGSGSGTDYSLTISNLEQEDIATYFCQQGHSLPPTFGGGTKLEIKR
notes: Mouse monoclonal antibody purified from hybridoma supernatant, isotype IgG1; also called A201 antibody
no binding: all assays above

B2: mouse anti-human EPHA2 antibody A205 (antibody, V domains shown)
VH: QIQLVQSGPELKKPGETVKISCKASGYTFTDYSMNWVKQAPGKGLKWMGWINTYTGEPTYADDFKGRFAFSLETSASTAYLQINNLKNEDTATYFCASPISLLRLLDYWGQGTTLTVSS
VL: DVVMTQTPLSLPVSLGDQASIPCRSSQSLVHSNGNTYLHWYLQKPGQSPKLLIYKVSNRFSGVPDRFSGSGSGTDFTLKISRVEAEDLGVYFCSQSTHVPWTFGGGTKLEIKR
notes: Mouse monoclonal antibody purified from hybridoma supernatant, isotype IgG2b; also called A205 antibody
no binding: all assays above
